# Measurements taken from paper PMC9461429.
# Target: Human SARS-CoV-2_Wuhan S (SmT1), C-terminally fused to the resistin trimerization domain (SARS-CoV-2 (Wuhan-Hu-1) | not stated)
# Test: SPR
# Human ACE2 (aa18-615), His6-tagged monomeric ACE2, sequence (Q9BYF1 18-615): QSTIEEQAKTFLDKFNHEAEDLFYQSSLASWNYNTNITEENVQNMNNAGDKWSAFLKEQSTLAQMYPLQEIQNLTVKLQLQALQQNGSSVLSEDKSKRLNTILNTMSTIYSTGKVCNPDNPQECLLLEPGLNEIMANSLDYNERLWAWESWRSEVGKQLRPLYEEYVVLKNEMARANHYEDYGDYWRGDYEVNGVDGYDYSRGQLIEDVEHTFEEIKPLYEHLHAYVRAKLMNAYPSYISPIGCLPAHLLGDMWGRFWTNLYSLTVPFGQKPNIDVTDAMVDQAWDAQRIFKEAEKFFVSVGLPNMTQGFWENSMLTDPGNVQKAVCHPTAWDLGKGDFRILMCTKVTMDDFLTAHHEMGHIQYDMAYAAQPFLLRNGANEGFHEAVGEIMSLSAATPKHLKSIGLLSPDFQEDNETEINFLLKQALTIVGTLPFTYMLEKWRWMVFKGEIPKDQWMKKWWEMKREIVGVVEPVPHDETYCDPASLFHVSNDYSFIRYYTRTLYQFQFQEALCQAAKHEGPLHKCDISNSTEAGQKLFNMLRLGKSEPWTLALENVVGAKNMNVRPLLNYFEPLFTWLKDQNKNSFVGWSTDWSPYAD
substance,measurement,value
"Human ACE2 (aa18-615), His6-tagged monomeric ACE2 (from UniProt Q9BYF1-1 18-615) (receptor)",Kd,165 nM
